Columns and labels:
IL-18BP (Homo sapiens) = IL-18BP (Homo sapiens) (UniProt O95998); conditions: cited from earlier work
[1] = biological target: mouse IL-18 binding protein (mouse) (UniProt Q9Z0M9); test: SPR
Chain of mouse IL-18 binding protein (mouse) (Q9Z0M9 31-193): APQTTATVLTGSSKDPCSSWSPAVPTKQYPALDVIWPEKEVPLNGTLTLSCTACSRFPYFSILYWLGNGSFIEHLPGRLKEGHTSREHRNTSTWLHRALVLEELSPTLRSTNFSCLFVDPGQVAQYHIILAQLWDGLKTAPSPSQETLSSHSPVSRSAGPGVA

Chain of IL-18 (Q14116 37-193): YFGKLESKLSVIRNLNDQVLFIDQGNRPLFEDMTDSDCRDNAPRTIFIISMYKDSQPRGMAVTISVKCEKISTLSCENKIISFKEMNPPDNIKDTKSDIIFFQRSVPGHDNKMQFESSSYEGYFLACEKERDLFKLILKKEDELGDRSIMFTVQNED
Chain of IL-18BP (Homo sapiens) (O95998 31-194): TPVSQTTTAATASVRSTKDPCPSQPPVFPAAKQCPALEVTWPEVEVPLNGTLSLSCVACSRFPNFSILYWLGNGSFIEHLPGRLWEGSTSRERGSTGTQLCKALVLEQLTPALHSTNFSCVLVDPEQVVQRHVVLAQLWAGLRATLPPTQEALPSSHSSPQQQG

For IL-18 (from UniProt Q14116), the Kd (IL-18BP (Homo sapiens)) is given as < 0.001 µM.
For “decoy-resistant IL-18 variant CS2 (consensus sequence 2), DR-18 (from UniProt P70380 37-192) (ligand)”, the Kd [1] was > 10 µM.

From publication PMC7381364
